Tests used:
[1] = target: T1, extracellular domain cynomolgus monkey CD147-His (cynomolgus monkey); experiment: ELISA, extracellular domain cynomolgus monkey CD147-His on the plate
T1 construct: Made in FreeStyle-293F cells, purified on His-Trap HP; also called monkey extracellular domain CD147-His; cynomolgus monkey CD147 extracellular domain antigen
T1 chain: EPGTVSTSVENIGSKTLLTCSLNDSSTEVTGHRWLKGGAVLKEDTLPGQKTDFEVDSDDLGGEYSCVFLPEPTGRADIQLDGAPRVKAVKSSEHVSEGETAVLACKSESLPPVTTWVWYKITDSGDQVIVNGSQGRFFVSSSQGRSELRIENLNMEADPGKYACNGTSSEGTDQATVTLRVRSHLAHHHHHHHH

[2] = target: T2, extracellular domain human CD147-His (human, UniProt P35613 140-323); experiment: ELISA, extracellular domain human CD147-His on the plate
T2 construct: Made in FreeStyle-293F cells, purified on His-Trap HP; also called extracellular domain CD147-His; human CD147 extracellular domain antigen
T2 sequence: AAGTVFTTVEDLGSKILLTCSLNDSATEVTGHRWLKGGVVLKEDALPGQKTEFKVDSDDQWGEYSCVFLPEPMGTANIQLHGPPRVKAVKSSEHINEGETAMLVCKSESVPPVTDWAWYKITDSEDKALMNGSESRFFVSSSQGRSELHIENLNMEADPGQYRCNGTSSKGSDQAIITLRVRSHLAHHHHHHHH

binding result [1]: no binding
binding result [2]: binds
B1: HAb18 (antibody, V domains shown)
VH: EVKLEESGGGLVQPGGSMKLSCVASGFTFSDAWMDWVRQSPEKGLEWVAEIRSKANNHAPYYTESVKGRFTISRDDSKSIIYLQMNNLRAEDTGIYYCTRDSTATHWGQGTLVTVSA
VL: SIVMTQTPTFLVVSAGDRVTITCKASQSVINDVAWYQQKPGQSPKLLIFYASNRNTGVPDRFTGSGYGTDFTFTISTVQAEDLAVYFCQQDYSPPFTFGSGTKLEIK
notes: also called HAb18G; target antibody HAb18

Reference: patent WO2017061602A1 (dated 2017)
